Results from article PMC5446404.

Target: recombinant human fortilin (Strep-tag II), biotinylated (human) (UniProt P13693)
Test: BLI
Details: domain or fragment

Chain of recombinant human fortilin (Strep-tag II), biotinylated (human) (P13693 whole entry): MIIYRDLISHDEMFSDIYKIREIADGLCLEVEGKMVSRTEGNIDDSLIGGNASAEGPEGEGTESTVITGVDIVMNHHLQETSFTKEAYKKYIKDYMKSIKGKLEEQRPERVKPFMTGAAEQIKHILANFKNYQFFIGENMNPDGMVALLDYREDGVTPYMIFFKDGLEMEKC
Chain of GST-IRE1α-L (aa 1-70) (O75460 19-70): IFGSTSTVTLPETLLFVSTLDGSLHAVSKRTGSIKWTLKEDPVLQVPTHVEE

GST-IRE1α-L (aa 1-70) (from UniProt O75460 19-70)
Kd: 18 mM
